Test results: patent US20230192896A1 (BIOVERATIV THERAPEUTICS, published 2023)
Numbering of substitutions follows the chain as printed.

B1: BIIB-12-1315 (antibody, V domains shown)
VH: QVQLVQSGAEVKKPGASVKVSCKASGYTFTSYYMVWVRQAPGQGLEWMGIINPSGGSTSYAQKFQGRVTMTRDTSTSTVYMELSSLRSEDTAVYYCARGRPSSKRVTYFDYWGQGTLVTVSS
VL: EIVMTQSPATLSVSPGERATLSCRASQSVSSNLAWYQQKPGQAPRLLIYGASTRATGIPARFSGSGSGTEFTLTISSLQSEDFAVYYCQQVFNWPPWTFGGGTKVEIK
notes: IgG
B2: BIIB-12-1295 (antibody, V domains shown)
VH: QVQLVQSGAEVKKPGASVKVSCKASGYTFTSYYMVWVRQAPGQGLEWMGIINPSGGSTSYAQKFQGRVTMTRDTSTSTVYMELSSLRSEDTAVYYCARVGGATTGKIGYGMDVWGQGTTVTVSS
VL: DIQMTQSPSSVSASVGDRVTITCRASQGISSWLAWYQQKPGKAPKLLIYAASNLQSGVPSRFSGSGSGTDFTLTISSLQPEDFATYYCQQAISLPITFGGGTKVEIK
notes: IgG
B3: BIIB-12-1312 (antibody, V domains shown)
VH: QVQLVESGGGVVQPGRSLRLSCAASGFTFSSYGMHWVRQAPGKGLEWVAVISYDGSNKYYADSVKGRFTISRDNSKNTLYLQMNSLRAEDTAVYYCAKGMGHWIDYWGQGTLVTVSS
VL: B2 VL with N53S, I92S, L94F, I96P
notes: IgG
B4: BIIB-12-1307 (antibody, V domains shown)
VH: QVQLQESGPGLVKPSETLSLTCAVSGYSISSGYYWAWIRQPPGKGLEWIGSIYHSGSTYYNPSLKSRVTISVDTSKNQFSLKLSSVTAADTAVYYCARGPLPRSRGLAFDIWGQGTMVTVSS
VL: B2 VL with M4L, V11L, G28S, W32F, A34N, N53S, A91T, I92Y, L94T, I96L
notes: IgG
B5: BIIB-12-1298 (antibody, V domains shown)
VH: QVQLVESGGGVVQPGRSLRLSCAASGFTFSSYGMHWVRQAPGKGLEWVAVISYDGSNKYYADSVKGRFTISRDNSKNTLYLQMNSLRAEDTAVYYCAKGGSDRRVGSWGQGTLVTVSS
VL: B2 VL with N53S, A91T, I92N
notes: IgG
B6: BIIB-12-1317 (antibody, V domains shown)
VH: B3 VH with K98R, M100V, H102G, W103H, I104D, D105T, Y106R
VL: B2 VL with N53S, A91R, I92H, I96P
notes: IgG
B7: BIIB-12-1316 (antibody, V domains shown)
VH: B5 VH with G99S, S101Q, D102Y, R104A, V105F, G106D, S107I, L113M
VL: B2 VL with N53S, A91I, I92N, S93N, L94F, I96P
notes: IgG
B8: BIIB-12-1302 (antibody, V domains shown)
VH: QVQLVQSGAEVKKPGASVKVSCKASGYTFTNYGISWVRQAPGQGLEWMGWISAYNGNTNYAQKLQGRVTMTTDTSTSTAYMELRSLRSDDTAVYYCARARSDWRAFDIWGQGTMVTVSS
VL: EIVMTQSPATLSVSPGERATLSCRASQSVSSNLAWYQQKPGQAPRLLIYGASTRATGIPARFSGSGSGTEFTLTISSLQSEDFAVYYCQQVNNLPLTFGGGTKVEIK
notes: IgG
B9: BIIB-12-1304 (antibody, V domains shown)
VH: B5 VH with G100P, S101G, D102S, V105F, G106D, S107I, L113M
VL: B8 VL with V91A, N93V
notes: IgG
B10: BIIB-12-1313 (antibody, V domains shown)
VH: QVQLVESGGGVVQPGRSLRLSCAASGFTFSSYGMHWVRQAPGKGLEWVAVISYDGSNKYYADSVKGRFTISRDNSKNTLYLQMNSLRAEDTAVYYCAKGTGWWRYWGQGTLVTVSS
VL: B8 VL with V91H, N93H, L96I
notes: IgG
B11: BIIB-12-1306 (antibody, V domains shown)
VH: QVQLQESGPGLVKPSQTLSLTCTVSGGSISSGGYYWSWIRQHPGKGLEWIGSIYYSGSTYYNPSLKSRVTISVDTSKNQFSLKLSSVTAADTAVYYCARGAGGSAPWGQGTLVTVSS
VL: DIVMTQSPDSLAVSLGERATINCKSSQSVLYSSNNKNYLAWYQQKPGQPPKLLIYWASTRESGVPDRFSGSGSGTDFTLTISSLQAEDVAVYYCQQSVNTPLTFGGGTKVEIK
notes: IgG
B12: BIIB-12-1303 (antibody, V domains shown)
VH: QVQLVESGGGVVQPGRSLRLSCAASGFTFSSYGMHWVRQAPGKGLEWVAVISYDGSNKYYADSVKGRFTISRDNSKNTLYLQMNSLRAEDTAVYYCARGPTSRLFQHWGQGTLVTVS
VL: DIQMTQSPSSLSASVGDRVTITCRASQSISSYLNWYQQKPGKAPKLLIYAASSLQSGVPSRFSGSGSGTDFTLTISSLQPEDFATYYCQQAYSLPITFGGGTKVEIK
notes: IgG
B13: BIIB-12-1297 (antibody, V domains shown)
VH: QVQLVESGGGVVQPGRSLRLSCAASGFTFSSYGMHWVRQAPGKGLEWVAVISYDGSNKYYADSVKGRFTISRDNSKNTLYLQMNSLRAEDTAVYYCARSGGQTHRRSMDVWGQGTTVTVSS
VL: EIVLTQSPATLSLSPGERATLSCRASQSVSRYLAWYQQKPGQAPRLLIYDASNRATGIPARFSGSGSGTDFTLTISSLEPEDFAVYYCQQGNNWPPTFGGGTKVEIK
notes: IgG
B14: BIIB-12-1301 (antibody, V domains shown)
VH: QVQLVESGGGVVQPGRSLRLSCAASGFTFSSYGMHWVRQAPGKGLEWVAVISYDGSNKYYADSVKGRFTISRDNSKNTLYLQMNSLRAEDTAVYYCARTGNYGRGMPYWGQGTLVTVSS
VL: B13 VL with R31S, N53K, G91S, N92S, N93S
notes: IgG
B15: BIIB-12-1318 (antibody, V domains shown)
VH: QVQLVESGGGVVQPGRSLRLSCAASGFTFSSYGMHWVRQAPGKGLEWVAVISYDGSNKYYADSVKGRFTISRDNSKNTLYLQMNSLRAEDTAVYYCARKGDYRSGSYSGRAFGIWGQGTMVTVSS
VL: B13 VL with R31S, G91L
notes: IgG
B16: BIIB-12-1305 (antibody, V domains shown)
VH: QVQLVESGGGVVQPGRSLRLSCAASGFTFSSYGMHWVRQAPGKGLEWVAVISYDGSNKYYADSVKGRFTISRDNSKNTLYLQMNSLRAEDTAVYYCAKLGGRWSSDFQHWGQGTLVTVSS
VL: B13 VL with R31S, G91S, N92A
notes: IgG
B17: BIIB-12-1310 (antibody, V domains shown)
VH: EVQLVESGGGLVKPGGSLRLSCAASGFTFSSYSMNWVRQAPGKGLEWVSSISSSSSYIYYADSVKGRFTISRDNAKNSLYLQMNSLRAEDTAVYYCARLGGYGSSQRYFDLWGRGTLVTVSS
VL: B13 VL with Q89E, G91A, N92S
notes: IgG

Biological target: T1, non-activatable Factor X (FXn) (Homo sapiens (Human), UniProt P00742 41-488, single biotin on the C-terminal BioTag)
T1 construct: also called BIIB-FX-015
Test: BLI; class meaning: paragraph 285

| Binder | binding result |
| --- | --- |
| B1 | binds |
| B2 | binds |
| B3 | binds |
| B4 | binds |
| B5 | binds |
| B6 | binds |
| B7 | binds |
| B8 | binds |
| B9 | binds |
| B10 | binds |
| B11 | binds |
| B12 | binds |
| B13 | binds |
| B14 | binds |
| B15 | binds |
| B16 | binds |
| B17 | binds |
